Target: T1, His-BaeR (Acinetobacter baumannii ATCC 17978) (UniProt A0ABX6CJ55)
T1 sequence: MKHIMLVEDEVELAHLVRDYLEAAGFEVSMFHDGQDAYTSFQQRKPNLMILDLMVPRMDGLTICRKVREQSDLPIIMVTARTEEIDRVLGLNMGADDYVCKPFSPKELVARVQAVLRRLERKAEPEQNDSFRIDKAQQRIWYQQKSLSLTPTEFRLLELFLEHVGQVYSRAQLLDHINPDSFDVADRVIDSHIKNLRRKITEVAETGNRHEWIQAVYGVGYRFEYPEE
Assay: EMSA

“GCCTTCACGTTTTAAATAATTTTCAATAATGTCGCCAATATCGTAGTCATCTTCTACCACAAGAATAACTTTATCTTGGCAATCAAAAGAAAAAGAATGATCAAACATAGAAAATCTGGCTATAGAAAGTGCTTCAACTCATCATACGCTAAATTATCCGTATTTCTCCACACTTACTCCACACTTTAGTGATTATCCCTACACACTCATCAAAAATAATACGAACATCAAAAACTCACTAGG (double strand) [adeA promoter region (243 bp)]” was tested, and the binding was “no binding”.

For “TTTCTGAGCAGCAGCAGCTTGCTGTTTCTCATCGGAGCCTTTGCTACAACCAACAAGCGCGATACTTGTTGCTAATGCGCAAGCAGTAAGGGCTGGTGCCCAAAGCTTAGCCGACATCATTGTTCCACCTCGTTTAGATAAAAT (double strand) [adeI promoter region (144 bp)]”, the binding was “no binding”.

Reference: PMC4498774
